According to patent publication US6010851A, “Method for producing nucleoside-5'-phosphate ester” (Ajinomoto Co., Inc., priority 1995, dated 2000):

Columns and labels:
[1] = Phosphomonoesterase activity (inosine produced by hydrolysis of 5'-inosinic acid); assay type: biochemical
Method: The phosphomonoesterase activity was measured under the following condition using 5'-inosinic acid as a substrate. The reaction was performed at 30° C. for 10 minutes in a reaction solution (1 ml) containing 10 μmol/ml of 5'-inosinic acid, 100 μmol/ml of MES/NaOH buffer (pH 6.0), and an enzyme. The reaction was stopped by adding 200 μl of 2 N hydrochloric acid. After that, precipitates were removed by centrifugation. Then, inosine produced by the hydrolytic reaction was quantitatively measured. An amount of enzyme to produce 1 μmol of inosine per 1 minute under this standard reaction condition was defined as 1 unit.
Inosine and 5'-inosinic acid were analyzed under the following condition by means of high-performance liquid chromatography (HPLC).

[2] = Properties of the purified acid phosphatase derived from Morganella morganii; design: species or system Morganella morganii NCIMB 10466
Method: (§1) A nutrient medium (pH 7.0, 50 ml) containing 1 g/dl of peptone, 0.5 g/dl of yeast extract, and 1 g/dl of sodium chloride was poured into Sakaguchi flasks (500 ml), which was sterilized at 120° C. for 20 minutes. A slant culture of Morganella morganii NCIMB 10466 was inoculated to each of the flasks once with a platinum loop, which was cultivated at 30° C. for 16 hours with shaking. Microbial cells (about 3,000 g), which were harvested from a culture by centrifugation, were suspended in 100 mM potassium phosphate buffer (1 L, pH 7.0). A ultrasonic treatment was performed at 4° C. for 20 minutes to disrupt the microbial cells. The treated suspension was centrifuged to remove its insoluble fraction. Thus a cell-free extract was prepared.
(§2) The purified enzyme had the following properties.

[3] = Properties of the purified acid phosphatase derived from Escherichia blattae; design: species or system Escherichia blattae JCM 1650
Method: as §1, with “Escherichia blattae JCM 1650” for “Morganella morganii NCIMB 10466”, “cells” for “cells (about 3,000 g), which”, “centrifugation. The microbial cells (about 3,300 g)” for “centrifugation,”
as §2

[4] = phosphate ester hydrolytic reaction
[5] = treatment at pH 7.0 for 30 minutes

B1: acid phosphatase derived from Morganella morganii: enzyme purified from cell-free extract of Morganella morganii NCIMB 10466; mature protein SEQ ID NO: 4 (protein)
chain: AIPAGNDATTKPDLYYLKNEQAIDSLKLLPPPPEVGSIQFLNDQAMYEKGRMLRNTERGKQAQADADLAAGGVATAFSGAFGYPITEKDSPELYKLLTNMIEDAGDLATRSAKEHYMRIRPFAFYGTETCNTKDQKKLSTNGSYPSGHTSIGWATALVLAEVNPANQDAILERGYQLGQSRVICGYHWQSDVDAARIVGSAAVATLHSDPAFQAQLAKAKQEFAQKSQK
[1]; purified Morganella morganii enzyme
  phosphate ester hydrolytic activity (phosphomonoestrase activity) relative to transphosphorylation activity: not less than 20 times
[2]
  Optimum temperature: about 35 °C
[2]; [4]
  Optimum pH: 6.5
[2]; transphosphorylation reaction
  Optimum pH: 5.2
[2]; [5]
  Temperature stability: up to 30 °C

B2: acid phosphatase derived from Escherichia blattae: enzyme purified from cell-free extract of Escherichia blattae JCM 1650; mature protein SEQ ID NO: 11 (protein)
chain: LALVATGNDTTTKPDLYYLKNSEAINSLALLPPPPAVGSIAFLNDQAMYEQGRLLRNTERGKLAAEDANLSSGGVANAFSGAFGSPITEKDAPALHKLLTNMIEDAGDLATRSAKDHYMRIRPFAFYGVSTCNTTEQDKLSKNGSYPSGHTSIGWATALVLAEINPQRQNEILKRGYELGQSRVICGYHWQSDVDAARVVGSAVVATLHTNPAFQQQLQKAKAEFAQHQKK
[1]; purified Escherichia blattae enzyme
  phosphate ester hydrolytic activity (phosphomonoesterase activity) relative to transphosphorylation activity: not less than 30 times
[3]
  Optimum temperature: about 35 °C
[3]; [4]
  Optimum pH: 6.5
[3]; transphosphorylation reaction
  Optimum pH: 5.2
[3]; [5]
  Temperature stability: up to 40 °C
